Experimental data taken from patent publication US20250084434A1 (KRIYA THERAPEUTICS, published 2025).

Target: IGF-1R, endogenous, on cultured cells (HT-1080, Colo205, peripheral blood fibrocytes) (human, UniProt P08069 31-1367)
Experiment: cell-based or functional assay

IGF-1R, endogenous, on cultured cells (HT-1080, Colo205, peripheral blood fibrocytes), sequence (P08069 31-1367): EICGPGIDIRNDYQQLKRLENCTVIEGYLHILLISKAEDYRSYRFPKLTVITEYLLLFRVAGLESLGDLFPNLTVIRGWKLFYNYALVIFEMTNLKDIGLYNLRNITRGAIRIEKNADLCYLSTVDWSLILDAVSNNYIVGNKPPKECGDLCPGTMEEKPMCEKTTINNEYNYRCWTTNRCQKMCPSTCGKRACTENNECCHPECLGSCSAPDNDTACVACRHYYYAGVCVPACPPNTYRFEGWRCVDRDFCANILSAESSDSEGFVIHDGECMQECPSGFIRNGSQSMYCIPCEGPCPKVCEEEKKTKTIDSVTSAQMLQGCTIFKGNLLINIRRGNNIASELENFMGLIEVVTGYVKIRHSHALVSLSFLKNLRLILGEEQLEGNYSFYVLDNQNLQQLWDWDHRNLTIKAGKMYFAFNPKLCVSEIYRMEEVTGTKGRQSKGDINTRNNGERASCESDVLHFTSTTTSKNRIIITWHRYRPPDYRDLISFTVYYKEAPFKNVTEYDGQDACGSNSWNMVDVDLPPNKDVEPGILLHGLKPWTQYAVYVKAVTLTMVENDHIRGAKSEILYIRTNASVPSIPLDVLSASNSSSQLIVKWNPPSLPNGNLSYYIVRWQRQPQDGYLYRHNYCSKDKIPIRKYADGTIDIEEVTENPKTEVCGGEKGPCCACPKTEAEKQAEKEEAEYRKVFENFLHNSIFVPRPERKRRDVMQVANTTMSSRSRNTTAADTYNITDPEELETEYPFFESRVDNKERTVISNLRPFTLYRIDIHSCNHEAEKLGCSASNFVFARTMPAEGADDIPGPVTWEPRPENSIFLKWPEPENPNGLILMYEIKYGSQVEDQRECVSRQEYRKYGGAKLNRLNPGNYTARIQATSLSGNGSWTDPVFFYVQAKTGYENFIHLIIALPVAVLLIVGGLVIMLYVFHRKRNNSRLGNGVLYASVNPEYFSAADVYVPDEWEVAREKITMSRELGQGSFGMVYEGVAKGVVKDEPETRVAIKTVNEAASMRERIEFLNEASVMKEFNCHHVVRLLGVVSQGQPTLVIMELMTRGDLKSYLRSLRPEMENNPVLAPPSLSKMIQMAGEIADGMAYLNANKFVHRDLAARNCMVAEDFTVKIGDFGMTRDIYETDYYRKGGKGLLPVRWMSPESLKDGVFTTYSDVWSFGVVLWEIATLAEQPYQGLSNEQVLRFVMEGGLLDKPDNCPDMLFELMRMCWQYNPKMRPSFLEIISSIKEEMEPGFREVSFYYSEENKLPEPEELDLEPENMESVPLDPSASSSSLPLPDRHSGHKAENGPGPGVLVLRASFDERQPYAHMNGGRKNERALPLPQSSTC

B1: vectorized Teprotumumab (secreted from HEK-293 cells transfected with teprotumumab plasmid construct (antibody, V domains shown)
VH: QVELVESGGGVVQPGRSQRLSCAASGFTFSSYGMHWVRQAPGKGLEWVAIIWFDGSSTYYADSVRGRFTISRDNSKNTLYLQMNSLRAEDTAVYFCARELGRRYFDLWGRGTLVSVSS
VL: EIVLTQSPATLSLSPGERATLSCRASQSVSSYLAWYQQKPGQAPRLLIYDASKRATGIPARFSGSGSGTDFTLTISSLEPEDFAVYYCQQRSKWPPWTFGQGTKVESKR
reduction in IGF-1R activation (IGF-1R phosphorylation) by IGF in HT-1080 cells, MSD Insulin Signaling Panel (Phospho Protein): 4 fold
